The source of these data is paper PMC6286341, “The reduced activity of PP-1α under redox stress condition is a consequence of GSH-mediated transient disulfide formation” (Scientific Reports, 2018).

This data set concerns the molecule itself. The data set is described as follows: disulfide-linked peptides by LC-MS/MS (cross-over-read search); non-treated bovine SOD1, filter-aided sample preparation, trypsin/chymotrypsin digest.

B1: bovine superoxide dismutase 1 (SOD1) (enzyme)
chain: not shown
modifications: N-terminal acetylation (N-terminally acetylated Cys7 peptides)
notes: superoxide dismutase 1, bovine; 3 Cys residues Cys7, Cys56 and Cys145; also called bovine SOD1; source: bought: Sigma Aldrich S7571
Turning to B1, the binding result is listed as “binds”.
